# Target: the molecule itself
# Assay: global analysis of urea unfolding and refolding kinetics (manual-mixing far-UV CD at 230 nm); kinetic traces at 0.25 to 8.75 M urea and 1 to 40 µM protein fit together to 2U = 2M = N2; constants in the absence of urea; step: dimer (N2) to folded monomers (2M); monomer unfolding rate fixed to that of the stable monomeric variants; apo protein; 10 mM potassium phosphate, 1 mM K2EDTA, pH 7.2, 20°C
Protein,Kd [nM],koff [s⁻¹],kon [M⁻¹ s⁻¹]
"apo L106V SOD1 in the AS-SOD1 (C6A/C111S) background (enzyme, human Cu,Zn superoxide dismutase (SOD1), 153-residue subunit; Apo (metal-free) form with the intra-subunit C57-C146 disulfide bond intact; source: BL21-Gold(DE3) PLysS cells, purified (anion exchange QSepharose XL and/or gel filtration Sephacryl 200HR)) not shown",21,0.00151,73000
"apo-AS-SOD1 (human Cu,Zn superoxide dismutase, C6A/C111S pseudo-wild-type background, metal-free) (enzyme, human Cu,Zn superoxide dismutase (SOD1), 153-residue subunit; Apo (metal-free) form with the intra-subunit C57-C146 disulfide bond intact; also called WT; WT SOD1; source: BL21-Gold(DE3) PLysS cells, purified (anion exchange QSepharose XL and/or gel filtration Sephacryl 200HR)) not shown",0.87,0.000745,860000
"apo S134N SOD1 in the AS-SOD1 (C6A/C111S) background (enzyme, human Cu,Zn superoxide dismutase (SOD1), 153-residue subunit; Apo (metal-free) form with the intra-subunit C57-C146 disulfide bond intact; source: BL21-Gold(DE3) PLysS cells, purified (anion exchange QSepharose XL and/or gel filtration Sephacryl 200HR)) not shown",1.1,0.000222,200000
"apo A4V SOD1 in the AS-SOD1 (C6A/C111S) background (enzyme, human Cu,Zn superoxide dismutase (SOD1), 153-residue subunit; Apo (metal-free) form with the intra-subunit C57-C146 disulfide bond intact; source: BL21-Gold(DE3) PLysS cells, purified (anion exchange QSepharose XL and/or gel filtration Sephacryl 200HR)) not shown",123,0.0223,180000
"apo L38V SOD1 in the AS-SOD1 (C6A/C111S) background (enzyme, human Cu,Zn superoxide dismutase (SOD1), 153-residue subunit; Apo (metal-free) form with the intra-subunit C57-C146 disulfide bond intact; source: BL21-Gold(DE3) PLysS cells, purified (anion exchange QSepharose XL and/or gel filtration Sephacryl 200HR)) not shown",4.6,0.000557,120000

# Reference: article PMC2852398, “Metal-Free ALS Variants of Dimeric Human Cu,Zn-Superoxide Dismutase Have Enhanced Populations of Monomeric Species” (PLoS ONE, 2010)
